The series in a line: soluble on expression in E. coli; label from the status in PepcDB or PDB records.
With “MASEGGNSNGGTSGTGTKSEQDPKEGKRFFNFVFNVNKKITDETEMTQDFMNDLKHYQEFDETVTKCAGYLENVFIPYSSKGSKPEEEAFTRLATALGDFKSFVPQAYTAIFENFSTKMKAAGVSRKCHQALQAHDLRHMKKFHTESYEAFVEQRKKFDESRKKMDQAKADVRDAKTTTAIEKKAICYQLTVDDFDQKTEELIKIIEALPKVKQEYVRDIYLILSKHKQFHADMSKFFAASCVL”, the “soluble on expression in E. coli” value is given as “not soluble”.

Consider “MGHPPLLPLLLLLHTCVPASWGLRCMQCKTNGDCRVEECALGQDLCRTTIVRLWEEGEELELVEKSCTHSEKTNRTLSYRTGLKITSLTEVVCGLDLCNQGNSGRAVTYSRSRYLECISCGSSDMSCERGRHQSLQCRSPEEQCLDVVTHWIQEGEEGRPKDDRHLRGCGYLPGCPGSNGFHNNDTFHFLKCCNTTKCNEGPILELENLPQNGRQCYSCKGNSTHGCSSEETFLIDCRGPMNQCLVATGTHEPKNQSYMVRGCATASMCQHAHLGDAFSMNHIDVSCCTKSGCNHPDLDVQYRSGAAPQPGPAHLSLTITLLMTARLWGGTLLWT”, for which the “soluble on expression in E. coli” value is listed as “not soluble”.

In the case of “HMAEIYLAGGCFWGLEEYFSRISGVLETSVGYANGQVETTNYQLLKETDHAETVQVIYDEKEVSLREILLYYFRVIDPLSINQQGNDRGRQYRTGIYYQDEADLPAIYTVVQEQERMLGRKIAVEVEQLRHYILAEDYHQDYLRKNPSGYCHIDVTDADKPLIDAANYEKPSQEVLKASLSEESYRVTQEAATEAPFTNAYDQTFEEGIYVDITTGEPLFFAKDKFASGCGWPSFSRPLSKELIHYYKDLSHGMERIEVRSRSGSAHLGHVFTDGPRELGGLRYCINSASLRFVAKDEMEKAGYGYLLPYLNK”, the “soluble on expression in E. coli” value is “soluble”.

For the sequence “QQFHWVNDGYADFDGFLAALSSRKRKAIRKERAQAQGFGGQIRELTGGDLRPEHWDAFWRFYQDTGARKWGSPYLTRAFFDIAHQTMADDMVLVLAERDGIPVAGALNFIGREALFGRYWGCVEHHPCLHFELCYYRAIDWAIAHGLARVEAGAQGEHKLARG”, the “soluble on expression in E. coli” value is “not soluble”.

For “MGSDKIHHHHHHMTTSITIGNFKGGVGKTTTCVTFSYLLNKAHRKTLLIDFDPQGNASEIIEKTFPVFKQKNSKSLTDGIKNLDLSESIAHVTDYLDLMPSDWSLSLLPDMLEDYKKSDRPLFLKTLLTKIRNDYDYILIDVPPTLSAYTNNAVLASDYVIMVMQTQEQSYSSSLKFVSYLQGLRKDYDKSFDLLGIIAYLVKKDGPVDHEVLKAANQAFGKALFHGNVFQRERVKRFGKSGIKDEDMWDKRALYMYQVVLDEALSRINLLEE”, the “soluble on expression in E. coli” value is reported as “not soluble”.

Consider “PLWVAPDGHIFLEAFSPVYKYAQDFLVAIAEPVCRPTHVHEYKLTAYSLYAAVSVGLQTSDITEYLRKLSKTGVPDGIMQFIKLCTVSYGKVKLVLKHNRYFVESCHPDVIQHLLQDPVIRECRLRNSEGEATELITETF”, for which the “soluble on expression in E. coli” value was “not soluble”.

For the sequence “GPLGSEQIGKLRSELEMVSGNVRVMSEMLTELVPTQAEPADLELLQELNRTCRAMQQRVLELIPQIANEQLTEELLIVNDNLNNVFLRHERFERFRTGQTTKA”, the “soluble on expression in E. coli” value was “soluble”.

Take “MGSDKIHHHHHHMDNNNSYLWPVTYDEVSHELTKWKFYKHFTKISGSVYLKNDLIDDPVLVTQALIKRCPQGVLRGYAALNRRGYQLFDDPWMPIISISGEPRTRKTTNVGKIIRRETPENLRRSGEFTLVSDSQALLDVFSLHGLDSFEHQVALIDHLIRQCPDLKDEIKKVPELRKHAEFTDEFAESPPESRLRVRLHMQGYRNFMPQVRVELEGRRFYLDLADPVWGVALEYNGGWHYTAEQRSKDAFRKNALKNAGWDVFEVTSKTLQSQQAWDYFFQQVRVAIQRKYADRKRRLPMQTVS”: the “soluble on expression in E. coli” value is listed as “not soluble”.

As to “GPLGSGGGTIAMLNEISSDTLEQLYSLAFNQYQSGKYEDAHKVFQALCVLDHYDSRFFLGLGACRQAMGQYDLAIHSYEEGAVMDIKEPRFPFHAAECLLQKGELAEAESGLFLAQELIANKPEFKELSTRVSSMLEAIKLKKEMKHE”, the “soluble on expression in E. coli” value is given as “soluble”.

Turning to “MSEEVIKFTSPRKQVKEEFKLIDTQKIADVRIQWFGKFTKNREKIMFCWKFFPGDKLQNEGIDFLVGHIKAYPHPTYNDFEPFEFDFNVNGAEHKETREYEYLTKNDWCCATYECELTPFRLYGNMFGASTKHDGVLVVEKKKLNVSKAFLSYHSDFFSDLFSREAHSKDIPIEGVTYFEFGLLISCIHPDHTVFPNDETVSKLLSLADRFSMRAVYRMVEHHLLHSSSNMGIREVIKTADQYGMKELMEKSISRITSTEKVMDLIQSAEFPELSAETKAKLMDCMAKMMR”, the “soluble on expression in E. coli” value is given as “not soluble”.

As to “MIKVALPKGRLFEETVDLLLKRGIIEKRIEEGRKLILEEGGITFFLVKPSDVPVYVESGVSDLGVCGYDVYLEKKPSVYRLMDLGIGFCRIAVAGKPESEEKYFSSTHISVATKYPNIAYEFFKKKGVKADIYYLNGSVELAPLVGLSDFILDLVQTGRTLKENGLIVIEEVGKSTAWLIANKDSFRIKNGQIMEFLSRLVQHNKDGLQVQGSSLEHHHHHH”, the “soluble on expression in E. coli” value was “not soluble”.

“MGSDKIHHHHHHMTTAADLSVFEQLDLPDTSLTRDTFAFAAQATPAFIHDHCVRSYVFARAHAQNQGLRAGTDYDDELLFVSCVLHDLGLSEEGSNGDQRFEVDGADIAAAFLRERGVEEERIAVAWDAIALHTSEGIASRKGTEVALAHLGIATDILGIQRESLPAGLADEVHALLPRQDLAHGFSDLIITQAVAKPHKASPTNFIGDLLRRHLPYGAYPNWYDLIDAAGWGDKPVGVTARRRAETPQQVGTLFMEYLEAGDVEGLVSLYEPNAHFVPTPGTHLVGTDAIREAMRQMVDSGARLKLEQREIRQVDDIALVSNNAILTGIGPEPVVSTTTEILRRQPDGGWVHAVDDPFFS”: the “soluble on expression in E. coli” value is given as “not soluble”.

Turning to “SMYKVRDISLAEWGRRELELAENEMPGLMELRREYGPSKPLKGAKIAGCLHMTMQTAVLIETLVELGAEVRWASCNIFSTQDHAAAAIAKRGIPVFAWKGETEEEYMWCMKQTLKGFSGDGYPNMLLDDGGDLTNYVLDECKELDGKIYGVSEETTTGVKNLYKRLQRGKLTIPAMNVNDSVTKSKFDNLYGCRESLVDGIKRATDVMIAGKTACVCGYGDVGKGCAAALRGFGARVVVTEVDPINALQAAMEGYQVLLVEDVVEEAHIFVTTTGNDDIITSEHFPRMRDDAIVCNIGHFDTEIQVAWLKANAKERVEVKPQVDRYTMANGRHIILLAEGRLVNLGCASGHPSFVMSNSFCNQVLAQIELWTNRDTGKYPRGAKAQVYFLPKKLDEKVAALHLGKLGAKLTKLTPKQAEYINCPVDGPFKPDHYRY”, the “soluble on expression in E. coli” value is “soluble”.

With “MGSDKIHHHHHHMNLEDIFSILPEKIEREVKRISDYNNLQEIRIKVNKPLIIQIGKKEIISNYIATKEDLKKTFNVMSGYSIYSVEDELRQGYITIKGGHRVGICGDCVLEENKIKTIKNISSLNIRICKEVTGCSNSIMKKIVYGNTVLNTIIISPPNCGKTTLLRDITRNISYGINSIQFRGKKVCVIDERSEIGACLNGVNQMDIGIRTDILDNCPKSIGIMMAIRSMAPEVIICDEIGTYDDIKSILTAVNCGVKLITTIHGFGIEDLNSRDVFKDAIKNNVFERAIVLSGRSGVGTVEYIYDFYTKERERGL”, the “soluble on expression in E. coli” value is recorded as “not soluble”.

Consider “MGHHHHHHSHMKEPLDGECGKAVVPQQELLDKIKEEPDNAQEYGCVQQPKTQESKLKIGGVSSVNERPIAQQLNPGFQLSFASSGPSVLLPSVPAVAIKVFCSGCKKMLYKGQTAYHKTGSTQLFCSTRCITRHSSPACLPPPPKKTCTNCSKYKILNIPFYFTFF”, for which the “soluble on expression in E. coli” value is given as “not soluble”.

On to “MQNNVVDSIIIDVLSASTHEKPLCKVITEERVLKLLDLALGVFKAQKPMVEVNAPIKVCGDIHGQFPDLLRLFHRGGWPPTANYLFLGDYVDRGRFSIETIVLLLAYKVKFPCNFFLLRGNHECEFVNKTYGFYEECQKRYQSVRMYAAFQDVFNWLPLTGLIATKILCMHGGLSPLMTKEFTLDTLRKIERPTEGKEGLVADLLWADPISGLSGFMNNQRGAGCGFGRDSVLNLCSEFQLDLVCRAHQVVQDGYEFFAGRKLVTIFSAPHYCGQFDNCAAFMSCDEKLQCSFEILRPTTGRLEIREKPLLKDETN”, for which the “soluble on expression in E. coli” value is reported as “not soluble”.

The values are drawn from the DeepSol protein solubility set.
